Data as given in patent US20130288983A1 (Amgen, published 2013).
Substitutions are numbered along the chain they refer to. In names and notes the source's numbering stands.

T1: Activin A (Homo sapiens (Human), UniProt P08476 311-426)
T1 sequence: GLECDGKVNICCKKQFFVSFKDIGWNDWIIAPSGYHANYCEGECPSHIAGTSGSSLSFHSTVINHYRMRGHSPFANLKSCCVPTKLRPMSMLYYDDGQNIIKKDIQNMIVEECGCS

B1: ActRIIB-IgG1 Fc E28A, linker 2(GGGGS) (Fc fusion)
chain: SGRGEAETRACIYYNANWELERTNQSGLERCEGEQDKRLHCYASWRNSSGTIELVKKGCWLDDFNCYDRQECVATEENPQVYFCCCEGNFCNERFTHLPEAGGPEVTYEPPPTAPTGGGGSGGGGSAPELLGGPSVFLFPPKPKDILMISRTPEVTCVVVDVSHEDPEVKFNWYVGGVEVHNAKTKPREEQYNSTYRVVSVLTVLHQDWLNGKEYKCKVSNKALPAPIEKTISKAKGQPREPQVYTLPPSRDELTKNQVSLTCLVKGFYPSDIAVEWESNGQPENNYKTTPPVLDSDGSFFLYSKLTVDKSRWQQGNVFSCSVMHEALHNHYTQKSLSLSPGK
notes: Tested from conditioned media
B2: ActRIIB-IgG1 Fc wild type, linker GGGGS (Fc fusion)
chain: SGRGEAETRECIYYNANWELERTNQSGLERCEGEQDKRLHCYASWRNSSGTIELVKKGCWLDDFNCYDRQECVATEENPQVYFCCCEGNFCNERFTHLPEAGGPEVTYEPPPTAPTGGGGSAPELLGGPSVFLFPPKPKDILMISRTPEVTCVVVDVSHEDPEVKFNWYVGGVEVHNAKTKPREEQYNSTYRVVSVLTVLHQDWLNGKEYKCKVSNKALPAPIEKTISKAKGQPREPQVYTLPPSRDELTKNQVSLTCLVKGFYPSDIAVEWESNGQPENNYKTTPPVLDSDGSFFLYSKLTVDKSRWQQGNVFSCSVMHEALHNHYTQKSLSLSPGK
notes: Tested from conditioned media
B3: ActRIIB-IgG1 Fc E28A, linker GGGGS (Fc fusion)
chain: B2 chain with E10A
notes: Tested from conditioned media
B4: ActRIIB5-IgG1 Fc R40A, linker GGGGS (Fc fusion)
chain: SGRGEAETRECIYYNANWELEATNQSGLERCEGEQDKRLHCYASWRNSSGTIELVKKGCWLDDFNCYDRQECVATEENPQVYFCCCEGNFCNERFTHLPEAGGPEGPWASTTIPSGGPEATAAAGDQGSGALWLCLEGPAHEGGGGSAPELLGGPSVFLFPPKPKDILMISRTPEVTCVVVDVSHEDPEVKFNWYVGGVEVHNAKTKPREEQYNSTYRVVSVLTVLHQDWLNGKEYKCKVSNKALPAPIEKTISKAKGQPREPQVYTLPPSRDELTKNQVSLTCLVKGFYPSDIAVEWESNGQPENNYKTTPPVLDSDGSFFLYSKLTVDKSRWQQGNVFSCSVMHEALHNHYTQKSLSLSPGK
notes: Tested from conditioned media
B5: ActRIIB5-IgG1 Fc E28W R40A, linker GGGGS (Fc fusion)
chain: B4 chain with E10W
notes: Tested from conditioned media
B6: ActRIIB5-IgG1 Fc E28A, linker GGGGS (Fc fusion)
chain: B4 chain with E10A, A22R
notes: Tested from conditioned media
B7: ActRIIB5-IgG1 Fc wild type, no linker (Fc fusion)
chain: SGRGEAETRECIYYNANWELERTNQSGLERCEGEQDKRLHCYASWRNSSGTIELVKKGCWLDDFNCYDRQECVATEENPQVYFCCCEGNFCNERFTHLPEAGGPEGPWASTTIPSGGPEATAAAGDQGSGALWLCLEGPAHEAPELLGGPSVFLFPPKPKDILMISRTPEVTCVVVDVSHEDPEVKFNWYVGGVEVHNAKTKPREEQYNSTYRVVSVLTVLHQDWLNGKEYKCKVSNKALPAPIEKTISKAKGQPREPQVYTLPPSRDELTKNQVSLTCLVKGFYPSDIAVEWESNGQPENNYKTTPPVLDSDGSFFLYSKLTVDKSRWQQGNVFSCSVMHEALHNHYTQKSLSLSPGK
notes: Tested from conditioned media
B8: ActRIIB5-IgG1 Fc E28A, no linker (Fc fusion)
chain: B7 chain with E10A
notes: Tested from conditioned media
B9: ActRIIB-IgG1 Fc wild type, no linker (Fc fusion)
chain: SGRGEAETRECIYYNANWELERTNQSGLERCEGEQDKRLHCYASWRNSSGTIELVKKGCWLDDFNCYDRQECVATEENPQVYFCCCEGNFCNERFTHLPEAGGPEVTYEPPPTAPTAPELLGGPSVFLFPPKPKDILMISRTPEVTCVVVDVSHEDPEVKFNWYVGGVEVHNAKTKPREEQYNSTYRVVSVLTVLHQDWLNGKEYKCKVSNKALPAPIEKTISKAKGQPREPQVYTLPPSRDELTKNQVSLTCLVKGFYPSDIAVEWESNGQPENNYKTTPPVLDSDGSFFLYSKLTVDKSRWQQGNVFSCSVMHEALHNHYTQKSLSLSPGK
notes: Tested from conditioned media
B10: ActRIIB-IgG1 Fc R40A, no linker (Fc fusion)
chain: B9 chain with R22A
notes: Tested from conditioned media
B11: ActRIIB-IgG1 Fc E28A, no linker (Fc fusion)
chain: B9 chain with E10A
notes: Tested from conditioned media
B12: ActRIIB-IgG1 Fc R40Y, linker GGGGS (Fc fusion)
chain: B2 chain with R22Y
notes: Tested from conditioned media
B13: ActRIIB-IgG1 Fc E28S, linker GGGGS (Fc fusion)
chain: B2 chain with E10S
notes: Tested from conditioned media
B14: ActRIIB-IgG1 Fc E28P, linker GGGGS (Fc fusion)
chain: B2 chain with E10P
notes: Tested from conditioned media
B15: ActRIIB-IgG1 Fc R40T, linker GGGGS (Fc fusion)
chain: B2 chain with R22T
notes: Tested from conditioned media
B16: ActRIIB-IgG1 Fc E28G, linker GGGGS (Fc fusion)
chain: B2 chain with E10G
notes: Tested from conditioned media
B17: ActRIIB-IgG1 Fc R40S, linker GGGGS (Fc fusion)
chain: B2 chain with R22S
notes: Tested from conditioned media
B18: ActRIIB-IgG1 Fc E28T, linker GGGGS (Fc fusion)
chain: B2 chain with E10T
notes: Tested from conditioned media
B19: ActRIIB-IgG1 Fc E28R, linker GGGGS (Fc fusion)
chain: B2 chain with E10R
notes: Tested from conditioned media
B20: ActRIIB-IgG1 Fc R40C, linker GGGGS (Fc fusion)
chain: B2 chain with R22C
notes: Tested from conditioned media
B21: ActRIIB-IgG1 Fc R40L, linker GGGGS (Fc fusion)
chain: B2 chain with R22L
notes: Tested from conditioned media
B22: ActRIIB-IgG1 Fc E28C, linker GGGGS (Fc fusion)
chain: B2 chain with E10C
notes: Tested from conditioned media
B23: ActRIIB-IgG1 Fc R40I, linker GGGGS (Fc fusion)
chain: B2 chain with R22I
notes: Tested from conditioned media
B24: ActRIIB-IgG1 Fc E28D, linker GGGGS (Fc fusion)
chain: B2 chain with E10D
notes: Tested from conditioned media
B25: ActRIIB-IgG1 Fc R40P, linker GGGGS (Fc fusion)
chain: B2 chain with R22P
notes: Tested from conditioned media
B26: ActRIIB-IgG1 Fc R40F, linker GGGGS (Fc fusion)
chain: B2 chain with R22F
notes: Tested from conditioned media
B27: ActRIIB-IgG1 Fc R40V, linker GGGGS (Fc fusion)
chain: B2 chain with R22V
notes: Tested from conditioned media
B28: ActRIIB-IgG1 Fc E28N, linker GGGGS (Fc fusion)
chain: B2 chain with E10N
notes: Tested from conditioned media
B29: ActRIIB-IgG1 Fc R40Q, linker GGGGS (Fc fusion)
chain: B2 chain with R22Q
notes: Tested from conditioned media
B30: ActRIIB-IgG1 Fc R40N, linker GGGGS (Fc fusion)
chain: B2 chain with R22N
notes: Tested from conditioned media

The molecules below were run against Myostatin (human) (UniProt O14793) (assay: cell-based or functional assay).
Chain of Myostatin (human) (O14793 267-375 limits assumed): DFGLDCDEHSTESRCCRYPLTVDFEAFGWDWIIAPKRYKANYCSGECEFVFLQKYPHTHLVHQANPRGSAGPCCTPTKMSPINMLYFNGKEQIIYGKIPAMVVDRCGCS

IC50 (nM) for myostatin cell based assay, C2C12/pMARE-luc, 4 nM myostatin [nM] | Molecule
0.9 | hActRIIB-hIgG2Fc (E28W) (SEQ ID NO: 91) (Fc fusion)
1.1 | hActRIIB-hIgG2Fc (SEQ ID NO: 89) (Fc fusion)
1 | hActRIIB-hIgG2Fc (E28Y) (SEQ ID NO: 93) (Fc fusion)

These molecules were tested against T1, Activin A (assay: Biacore SPR grade, CHO stable conditioned media, 20 nM activin A).
Method: (§1) Qualitative BIAcore® Assay. E28 and R40 were substituted respectively with other natural amino acids in fusions with IgG1 Fc as described above. Each vActRIIB-IgG1Fc sample from conditioned media was captured on goat anti-human IgG1 Fc antibody (Jackson Immuno Research, cat#109-005-098, lot 63550) coated CMS surface. 20 nM of Activin A was injected over captured sample surfaces using BIACore2000 (BIACore Life Sciences, Piscataway, N.J.). The resulting sensorgrams were normalized to the captured RL (500 RU) of vActRIIB-IgG1Fc variants. The normalized binding response (RU) for some variants are shown in Table 2, and is further described below. Relative binding affinity for activin was also determined by Biacore measurements using conditioned media obtained from mammalian cell expression. Activin A (20 nM) was used to capture soluble receptor polypeptide in the conditioned media and measured SPR signals were normalized. Normalized SPR of +++++: >60, ++++:40-60, +++:20-40, ++:10-20, +: 5-10, −: <5.

Normalized SPR [ru] | Molecule
20 to 40 | B1
40 to 60 | B2
20 to 40 | B3
20 to 40 | B4
40 to 60 | B5
20 to 40 | B6
20 to 40 | B7
20 to 40 | B8

What follows are molecules tested against T1, Activin A (assay: Biacore SPR grade, COS stable conditioned media, 20 nM activin A).
Method: as §1

Normalized SPR [ru] | Molecule
10 to 20 | B9
10 to 20 | B10
10 to 20 | B11

Each molecule was assayed against T1, Activin A (assay: Biacore SPR grade, COS transient conditioned media).
Method: as §1

normalized SPR signal [ru] | Molecule
< 5 | B12
< 5 | B13
< 5 | B14
< 5 | B15
< 5 | B16
< 5 | B17
< 5 | B18
< 5 | B19
< 5 | B20
< 5 | B21
< 5 | B22
< 5 | B23
< 5 | B24
< 5 | B25
< 5 | B26
< 5 | B27
< 5 | B28

The molecules below were run against T1, Activin A (assay: Biacore SPR grade, COS transient conditioned media, 20 nM activin A).
Method: as §1

normalized SPR signal [ru] | Molecule
5 to 10 | B2
5 to 10 | B29
10 to 20 | B30
5 to 10 | B3
